Measured values from patent US10323078B2, “Isolated peptides and fragments thereof from fibrinogen for use as drugs, particularly in skin inflammatory diseases” (Universite Paris Descartes, priority 2015, dated 2019).

B1: MKRMVSWSFHKLKTMKHLLLLLLCVFLVKSQGVNDNEEGFFSARGHRPLDKKREEAPSLRPAPPPISGGGYRARPAKAAATQKKVERKAPDAGGCLHADPDLGVLC (protein)
chain: MKRMVSWSFHKLKTMKHLLLLLLCVFLVKSQGVNDNEEGFFSARGHRPLDKKREEAPSLRPAPPPISGGGRARPAKAAATQKKVERKAPDAGGCLHADPDLGVLCMKRMVSWSFHKLKTMKHLLLLLLCVFLVKSQGVNDNEEGFFSARGHRPLDKKREEAPSLRPAPPPISGGGYRARPAKAAATQKKVERKAPDAGGCLHADPDLGVLC
modifications: GST fusion; fragment Fg1
notes: fragment of Bß chain of human fibrinogen having 106 amino acids; recombinant GST-fused peptide expressed in E. coli

Columns and labels:
[1] = tested on: Pfg; assay: Western ligand blot with biotinylated Pfg; format: binding, Propionibacterium acnes; details: biotinylated Pfg 0.1 μg/ml
[2] = tested on: monocytes and fibroblasts; assay: TNF-α production by cells stimulated with P. acnes, overall statement; format: cell-based, human; details: the 3 bacterial tested strains
Protocol: For experiences of stimulation with P. acnes, cells were incubated with the P. acnes suspension adjusted at the appropriate concentration, pre-treated for 1 h at 37° C. or not with fibrinogen recombinant peptides Fg1 and Fg2 at the concentrations 0.87, 1.75, 3.5 or 7 μM for the desired period of time at 37° C. in 5% CO2.
Human IL-1ß, IL-8, IL-12, hBD-2, and TNF-α protein concentration was measured in the supernatants of stimulated cells using various ELISA Set kits (Ready-Set-Go kit from eBioscience for acne experiments, and for psoriasis experiments the Duo set IL-8 kit from R&D Systems and the BD-2 Human Development (hBD-2) from Peprotech) according to the manufacturer's instructions. We used serial dilutions of recombinant human IL-1ß, IL-8, IL-12 and TNF-α for standard curve. The optical density was determined at 450 nm at a wavelength correction of 540 nm.
To assess the efficacy of Fg1 recombinant peptide, the production of O2^∘− and H2O2 by HaCaT cells NHDK, THP-1, MRC5 and HDF stimulated by pretreated P. acnes strains 6919, RON and PIE was measured. The amount of ROS produced was compared to that produced by the stimulated cells with untreated bacteria. Production baseline was obtained by measuring ROS on unstimulated cells. The production of IL-1ß, IL-8, IL-12 and TNF-α was also measured in all conditions cited above. […]

Row | Molecule | Recognition by biotinylated Pfg after electrophoretic separation of fibrinogen ([1]; 10 μg per lane, 10% SDS-PAGE) | Decrease of the production of TNF-α [2] | Recognition of GST-fused recombinant Bß fibrinogen fragments by biotinylated Pfg ([1]; E. coli total protein after IPTG induction, 12.5% SDS-PAGE)
1 | human fibrinogen: purified commercial human fibrinogen (Sigma), glycoprotein hexamer of Aα, Bß and γ chains | recognized by Pfg |  | 
2 | B1 |  | dose-response effect on the decrease of the production of TNF-α | recognized
